Target: the molecule itself
Test: oligomer pelleting by centrifugation with UV absorbance of the supernatant

B1: RAGE VC1 (tandem V and C1 domains of the receptor for advanced glycation end products) (domain or fragment, human)
chain: AQNITARIGEPLVLKCKGAPKKPPQRLEWKLNTGRTEAWKVLSPQGGGPWDSVARVLPNGSLFLPAVGIQDEGIFRCQAMNRNGKETKSNYRVRVYQIPGKPEIVDSASELTAGVPNKVGTCVSEGSYPAGTLSWHLDGKPLVPNEKGVSVKEQTRRHPETGLFTLQSELMVTPARGGDPRPTFSCSFSPGLPRHRALRTAPIQPRVWEPVPLEEVQL
Work on B1 yielded a Kd of 3.8 ± 1.3 µM.

Reference: paper PMC4250094 (Structure (London, England : 1993), 2010)
